PMC3892060

Columns and labels:
[1] = target: AP2μ-eCFP fusion (UniProt Q96CW1); assay: FACS-based FRET assay; conditions: 293T cells cotransfected with Nef-YFP and AP2µ-CFP, measured 24 hours later
[2] = target: AP2μ-eCFP fusion (human (HeLa cDNA library)) (UniProt Q96CW1); assay: FRET or BRET; FACS-based FRET; 293 T cells cotransfected with Nef-YFP fusion vectors and AP2μ-CFP; 24 hours later the amount of cells scoring FRET+ measured by flow cytometry
[3] = mean and SD of four to nine independent transfections, parent: est. 62, read off a plot

Row | Substance | response (% FRET+ cells) [1, 3] | response (% FRET+ cells) ([1]; representative single FACS plot (upper row of panel A), parent: 69.8) | percent of FRET+ cells (mean) [2]
1 | SIVmac 239 Nef-YFP Y28A | 26 | – | –
2 | SIVmac 239 Nef-YFP Y28F | 32 | 38.1 | –
3 | SIVsm FFm1 Nef-YFP (natural protein) | – | – | < 35%
4 | SIVmac 239 Nef-YFP G2A | 3 | – | –
5 | HIV-2 Ben Nef-YFP (natural protein) | – | – | < 35%
